Source: publication PMC2474558
Values belong to the binder of their own block, whether it stands above or below them.

Columns and labels:
[1] = biological target: T1, hDOP–Renilla luciferase (human), P41143; experiment: FRET or BRET; settings: remark: other sources report otherwise
T1 chain: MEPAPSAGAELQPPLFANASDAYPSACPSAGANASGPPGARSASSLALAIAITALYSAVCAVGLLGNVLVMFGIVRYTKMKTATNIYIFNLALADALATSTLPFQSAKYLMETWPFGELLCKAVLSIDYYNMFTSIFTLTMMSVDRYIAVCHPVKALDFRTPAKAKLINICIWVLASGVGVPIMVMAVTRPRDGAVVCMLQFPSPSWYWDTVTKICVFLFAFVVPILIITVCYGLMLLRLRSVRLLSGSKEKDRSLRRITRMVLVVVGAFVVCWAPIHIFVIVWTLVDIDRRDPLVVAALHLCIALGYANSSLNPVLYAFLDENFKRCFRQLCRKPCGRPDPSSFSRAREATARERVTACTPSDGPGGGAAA

[2] = biological target: T2, hCXCR2–Renilla luciferase (human), P25025; experiment: FRET or BRET; settings: remark: other sources report otherwise
T2 chain: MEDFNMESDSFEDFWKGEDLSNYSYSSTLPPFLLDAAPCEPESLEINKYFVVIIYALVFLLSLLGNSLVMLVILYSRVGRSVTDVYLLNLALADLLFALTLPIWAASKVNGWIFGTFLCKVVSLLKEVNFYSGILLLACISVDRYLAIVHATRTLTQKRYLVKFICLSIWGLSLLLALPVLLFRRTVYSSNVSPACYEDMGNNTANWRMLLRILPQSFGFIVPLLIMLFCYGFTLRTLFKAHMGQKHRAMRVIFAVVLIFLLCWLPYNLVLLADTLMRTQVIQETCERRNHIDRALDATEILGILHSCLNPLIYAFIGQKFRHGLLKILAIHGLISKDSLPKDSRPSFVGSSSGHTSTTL

BRET50 ([acceptor] to [donor] ratio) [1]: 2.2
B1: hDOP–GFP^2, P41143 1-372 (receptor)
chain: T1 chain

BRET50 ([acceptor] to [donor] ratio) [2]: 1.6
B2: hCXCR2–GFP^2, P25025 1-360 (receptor)
chain: T2 chain
